# Earlier results in US6770020B2 (priority 2001, dated 2004).
# Details: cited from earlier work
substance,measurement,value
Gd-DTPA-hydroxypropylpoly(D-lysine) [Gd-DTPA-pdl],membrane permeability,membrane impermeable
